The text below walks through data of patent US20110217237A1 (AbbVie / Abbott, published 2011).

Usually IC50 stands for the concentration that inhibits the measured activity by half. Usually EC50 stands for the concentration that produces a half-maximal response. Low values mean a more potent agent, high ones a less potent agent.

In assay [1] the target is T1, human DLL4, full length, on cells (human, UniProt Q9NR61 27-685).
T1 construct: also called huDLL4 cells; human DLL4-293G
Put plainly: competition FACS: huNotch-1 to DLL4 cells. The protocol: Notch blocking assay: Briefly, stable cell lines overexpressing cell-surface DLL4 were harvested from tissue culture flasks and re-suspended in phosphate buffered saline (PBS) containing 1% bovine serum albumin and 1 mM CaCl₂ (FACS buffer). HEK293G-DLL4 cells were dispensed into 96-well plate (v-bottom) at 1.5×10⁵ cells/well in FACS buffer. After spinning down cells and discarding the supernatant, 50 μL of purified IgG with appropriate dilution were added to each well, and incubated on ice at 4° C. for 60 minutes, followed by addition of 50 μL/well of Notch1-biotin at 0.2 μg/mL for human DLL4-293G or 2.0 μg/mL for mouse DLL4-293G (1.0 or 0.1 μg/mL final) for an additional 1 hour incubation ice at 4° C. After washing the cells two times with FACS buffer, 50 μL of R-phycoerythrin-conjugated streptavidin (1:150 dilution in FACS buffer) (Jackson ImmunoResearch, West Grove, Pa., Cat.#016-110-084) were added. Following an incubation on ice (4° C., 60 minutes), cells were washed three times and resuspended in FACS buffer. Fluorescence was measured using a Becton Dickinson FACSCalibur-HTS (Becton Dickinson, San Jose, Calif.). Data were analyzed using Graphpad Prism software, and IC₅₀ values were reported as the concentration of antibody to achieve 50% reduction of Notch1 bound to DLL4 expressing cells.

Assay [2] has as its target T1, human DLL4, full length, on cells. The assay can be described thus: FACS, DLL4 cells.
The next assay addresses T2, mouse DLL4 on cells (mouse, UniProt Q9JI71 27-686).
T2 construct: whole, on cells; also called mouse DLL4-293G; mu DLL4 cells
Put plainly: FACS, DLL4 cells. In general terms: In flow cytometry, cells or beads pass a laser one at a time.

T1 sequence (Q9NR61 27-685 limits assumed): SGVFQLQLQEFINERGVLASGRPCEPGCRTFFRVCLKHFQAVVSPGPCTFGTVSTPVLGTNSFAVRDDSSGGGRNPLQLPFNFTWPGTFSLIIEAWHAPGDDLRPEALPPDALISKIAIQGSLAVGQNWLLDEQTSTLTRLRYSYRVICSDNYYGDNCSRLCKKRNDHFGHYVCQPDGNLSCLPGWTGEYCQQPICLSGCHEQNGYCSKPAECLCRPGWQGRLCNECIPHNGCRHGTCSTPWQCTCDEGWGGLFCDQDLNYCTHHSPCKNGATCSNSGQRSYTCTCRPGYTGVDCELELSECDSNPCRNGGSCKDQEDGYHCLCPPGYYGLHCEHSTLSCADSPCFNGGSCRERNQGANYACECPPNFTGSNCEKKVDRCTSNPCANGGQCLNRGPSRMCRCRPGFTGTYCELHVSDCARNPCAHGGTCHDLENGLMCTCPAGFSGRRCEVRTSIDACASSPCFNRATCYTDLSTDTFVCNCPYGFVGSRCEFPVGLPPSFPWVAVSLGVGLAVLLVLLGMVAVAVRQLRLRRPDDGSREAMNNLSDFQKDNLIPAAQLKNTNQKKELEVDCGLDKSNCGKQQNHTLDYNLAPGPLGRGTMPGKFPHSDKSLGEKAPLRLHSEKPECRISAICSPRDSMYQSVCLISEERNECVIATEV
T2 sequence (Q9JI71 27-686): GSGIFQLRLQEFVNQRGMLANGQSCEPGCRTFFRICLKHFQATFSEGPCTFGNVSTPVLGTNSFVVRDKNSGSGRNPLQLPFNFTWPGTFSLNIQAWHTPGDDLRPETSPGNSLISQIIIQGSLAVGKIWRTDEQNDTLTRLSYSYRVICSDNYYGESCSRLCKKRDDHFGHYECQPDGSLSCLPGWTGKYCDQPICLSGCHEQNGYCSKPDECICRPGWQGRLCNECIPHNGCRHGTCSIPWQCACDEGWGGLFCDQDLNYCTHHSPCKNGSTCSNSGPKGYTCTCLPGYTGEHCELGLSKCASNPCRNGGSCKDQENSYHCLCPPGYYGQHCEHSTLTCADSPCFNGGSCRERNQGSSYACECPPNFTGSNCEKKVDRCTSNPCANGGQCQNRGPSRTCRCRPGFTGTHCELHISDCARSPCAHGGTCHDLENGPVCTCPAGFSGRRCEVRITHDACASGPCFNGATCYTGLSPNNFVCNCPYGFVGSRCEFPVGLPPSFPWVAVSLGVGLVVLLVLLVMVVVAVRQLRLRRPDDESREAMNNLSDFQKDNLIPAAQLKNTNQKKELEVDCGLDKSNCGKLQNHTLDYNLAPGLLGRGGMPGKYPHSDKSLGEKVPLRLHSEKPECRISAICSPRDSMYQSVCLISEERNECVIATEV

B1: 38H12 chimeric antibody (antibody, human IgG1, V domains shown)
VH: EVQLVESGGGLVQPGRSLKLSCAASGFTFSNYGMYWIRQAPTKGLQWVAFISHGGGITYYRDSVKGRFTISRDNAKSTLYLQMDSLRSEDTATYHCAALNWELGIDYWGQGVMVTVSS
VL: DIQMTQSPASLSASLGETISIECRASEDIYSNLAWYQKKSGKSPQLLIYAANRLQDGVPSRFSGSGSGTQYSLKISGMQPEDEGDYFCLQGSKFPLTFGSGTKLEIKR
notes: also called Chimera of 38H12
In the case of B1, in assay [1], the concentration for half-maximal inhibition (IC50) amounted to 1.44 nM. This molecule displayed an EC50 in assay [2] of 1.47 nM.

B2: 14G1 chimeric antibody (antibody, human IgG1, V domains shown)
VH: EVQLQQSGAELAKPGSSVKISCKASGYTFTNYDISWIKQTNGQGLEYLGYINTGSGGIYSNEKFKGKATLTVDKSSNTAFMQLSSLTPEDTAVYYCVREGNNFDHWGQGVKVTVSS
VL: DTVMTQSPASMSTSVGERVTVNCKASQSVGTIVAWFQQKPGQSPKRLIYLATYRHTGVPDRFIGSGFGRDFTLTISNVEAEDLAVYYCLQYGSRPFTFGAGTKLEIKR
notes: also called Chimera of 14G1
Consider B2, for which, in assay [1], the IC50 was determined as 4.11 nM. In assay [2], this molecule came in with an EC50 of 0.994 nM.

B3: 32C7 chimeric antibody (antibody, human IgG1, V domains shown)
VH: EVQLVESGGGLVQPGRSLKLSCLASGFPFSSVWMTWIRQAPGKGLEWIATITNSGASTYYSASVKGRFTISRDNVKSTLYLQMTSLGSEDTATYYCTRVGTSFDYWGQGVMVTVSS
VL: DIQMTQSPASLSASLGETVTIECRASDDIYNGLAWFQQKPGKSPQLLIYDANTLHTGVPSRFSGSGSGTQFSLKINSLQSEDVASYFCQQFYDYPPYTFGAGTKLELKR
notes: also called Chimera of 32C7
Turning to B3, the EC50 came out at 4.11 nM with mouse DLL4 on cells and 3.71 nM in assay [2].
